In paper PMC6864339:
Like-named read-outs stand apart in the source and are kept apart here.

What was measured:
Insulin [1] = assay: BLI
Insulin [2] = assay: BLI; remark: listed apart in the source

Kd (Insulin [1]): 1800 nM
koff (Insulin [1]): 0.001 s⁻¹
kon (Insulin [1]): 720 M⁻¹ s⁻¹
Kd (Insulin [2]): 1400 nM
koff (Insulin [2]): 0.0006 s⁻¹
B1: Recombinant mouse secretagogin (SCGN) (natural protein)
chain: MDNARRKTPARLDAACFWQIWQRFDKEEKGYIRETELDAFFDHLLAKSGTEDTLMEENVQKVKEQLMTSHNVSKEGRILMKELASMFLSEDENFLLFFRLETPLDNSVEFMQIWRKYDADSSGFISAAELCNFLRDLFLHHKKNISEAELEEYTSTMMKIFDKNKDGRLDLNDLARILALQENFLLQFKMDASSTEERKRDFEKIFAHYDVSKTGALEGPEVDGFVKDMMELVQPSISGVDLDKFREILLRHCDVNKDGKIQKSELALCLGLKINP
